From patent US20080248043A1 (Amgen, published 2008)

B1: 3C7 (antibody, V domains shown)
VH: QVQLVESGGGVVQPGTSLRLSCAASGFTFSSYGIHWVRQAPGKGLEWVAVIWYDGSNKFYADSVKGRFTISRDNSKNTLYLQMNSLRAEDTAVYYCARDPLGYCSSTSCSYFDYWGQGTLVTVSS
VL: DIQMTQSPSSVSASVGDRVTITCRASQGISNWLAWYQQKPGKAPKLLIYAASSLQSGVPSRFSGSGSGTDFTLTIRSLQPEDFATYYCQQANNFPLTFGGGTKVEIK
B2: 6B1 (antibody, V domains shown)
VH: QVQLVESGGGVVQPGTSLRLSCAASGFTFSSYGIHWVRQAPGKGLEWVAVIWYDGSNKFHADSVKGRFTISRDNSKNTLYLQMNSLRAEDTAVYYCARDPLGYCSSTSCSYFDYWGQGTLVTVSS
VL: DIQMTQSPSSVSASVGDRVTITCRASQGISNWLAWYQQKPGKAPKLLIYAASSLQSGVPSRFSGSGSGTDFTLTISSLQPEDFATYYCQQANNFPLTFGGGTKVEIK
B3: 6B5 (antibody, V domains shown)
VH: not shown
VL: DIQMTQSPSSLSASVGDRVTITCRASQGIRSDLGWYQQRPGKTPKRLIYAASSLQSGVPSRFSGSGSGTEFTLTISSLQPEDFATYYCQQYNSYPLTFGGGTKVEIK
B4: 3H12 (antibody, V domains shown)
VH: QVQLQESGPGLVKPSETLSLTCTVSDGSISSFYWSWIRQPPGKGLEWIGYIYYSGSTNYNPSLKSRVTISVDTSKNQFSLKLSSVTAADTAVYYCARDYDILTGYSNYYGMDVWGQGTTVTVSS
VL: DIQMTQSPSSLSASVGDRVTITCRASQGIRNDLGWYQQKPGKAPKRLIYAASSLQSGVPSRFSGSGSGTEFTLTISSLQPEDFATYYCLQHNSYPFTFGPGTKLDIK
B5: 5E4 (antibody, V domains shown)
VH: QVHLVQSGAEVKKPGASVKVSCKASGYTFTGYYVHWVRQAPGQGLEWMGWINPNSGGTNYAQKFQGRVTMTRDTSISTAYMELSRLRSDDTAVYFCAGGRYLDYWGQGTLVTVSS
VL: DIQMTQSPSSLSASVGDRVTITCRASQGIRNDLGWYQQKPGKAPKRLIYAASSLQSGVPSRFSGSGSGTEFTLTISSLQPEDFATYYCLQYNSYPITFGQGTRLEIK
B6: 5A7 (antibody, V domains shown)
VH: QVQLVQSGAEVKKPGASVKVSCKASGYTFTSYGISWVRQAPGQGLEWMGWISAYNGNTNYAQKLQGRVTMTTDTSTSTAYMELRSLRSDDTAVYYCAVGRYLDYWGQGTLVTVSS
VL: DIQMTQSPSSLSASVGDRVTITCRASQDIRNDLGWYQQKPGKAPKRLIYAASSLQSGVPSRFSGSGSGTEFTLTISSLQPEDFATYYCLQYNSYPLTFGGGTKVEIK
B7: 5D3 (antibody, V domains shown)
VH: QVQLVQSGAEVKKPGASVKVSCKASGYTFTSYGISWVRQAPGQGLEWMGWISAYNGNTNYAQKLQGRVTMTTDTSTSTAYMELRSLRSDDTAVYYCAVGRYLDYWGQGTLVTVSS
VL: DIQMTQSPSSLSASVGDRVTITCRASQDIRNDLGWYQQKPGKAPKRLIYAASSLQSGVPSRFSGSGSGTEFTLTISSLQPEDFATYYCLQYNSYPLTFGGGTKVEIK
B8: 3A7 (antibody, V domains shown)
VH: QVQLVQSGAEVKKPGASVKVSCKASGYTFTSYGISWVRQAPGQGLEWMGWISAYNGNTNYAQKLQGRVTMTTDTSTSTAYMELRSLRSDDTAVYYCAVGRYLDYWGQGTLVTVSS
VL: DIQMTQSPSSLSASVGDRVTITCRASQDIRNDLGWYQQKPGKAPKRLIYAASSLQSGVPSRFSGSGSGTEFTLTISSLQPEDFATYYCLQYNSYPLTFGGGTKVEIK
B9: 1B5 (antibody, V domains shown)
VH: QVQLVESGGGVVQPGRSLRLSCAASGFTFSSYGMHWVRQAPGKGLEWVAVIWYDGSNKYYADSVKGRFTISRDNSKNTLYLQMNSLRAEDTAVYYCARGDFYWFDPWGQGTLVTVSS
VL: DIQMTQSPSSLSASVGDRVTITCRASQGIRSDLGWYQQRPGKTPKRLIYAASSLQSGVPSRFSGSGSGTEFTLTISSLQPEDFATYYCQQYNSYPLTFGGGTKVEIK
B10: 6B8 (antibody, V domains shown)
VH: QVQLVQSGAEVKKPGASVKVSCKASGYTFTSYGISWVRQAPGQGLEWMGWISAYNGNTNYAQKLQGRVTMTTDTSTSTAYMELRSLRSDDTAVYYCAVGRYLDYWGQGTLVTVSS
VL: DIQMTQSPSSLSASVGDRVTITCRASQDIRNDLGWYQQKPGKAPKRLIYAASSLQSGVPSRFSGSGSGTEFTLTISSLQPEDFATYYCLQYNSYPLTFGGGTKVEIK
B11: 5A5 (antibody, V domains shown)
VH: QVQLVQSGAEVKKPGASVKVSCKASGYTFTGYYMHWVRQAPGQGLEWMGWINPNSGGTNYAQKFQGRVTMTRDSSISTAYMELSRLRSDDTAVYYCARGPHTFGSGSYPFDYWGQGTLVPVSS
VL: DIQLTQSPSSLSASVGDRVTITCRASQGIRSDLGWYQQRPGKTPKRLIYAASSLQSGVPSRFSGSGSGTEFTLTISSLQPEDFATYYCQQYNSYPLTFGGGTKVEIK
B12: 6C1 (antibody, V domains shown)
VH: QVQLVQSGAEVKKPGASVKVSCKASGFPFTDYYMHWVRQAPGQGLEWMGWINSNSGGTNYAQKFQGRVTMTRDTSISTAYMELSRLRSDDTAVYYCARGPHSFGSGSYPFDYWGQGTLVTVSS
VL: DIQMTQSPSSLSASVGDRVTITCRASQGIRSDLGWYQQRPGKTPKRLIYAASSLQSGVPSRFSGSGSGTEFTLTISSLQPEDFATYYCQQYNSYPLTFGGGTKVEIK
B13: 6C2 (antibody, V domains shown)
VH: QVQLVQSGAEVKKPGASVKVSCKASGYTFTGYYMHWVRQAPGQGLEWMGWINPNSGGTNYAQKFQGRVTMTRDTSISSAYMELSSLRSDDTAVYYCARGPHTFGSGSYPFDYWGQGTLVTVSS
VL: DIQMTQSPSSLSASVGDRVTITCRASQGIRSDLGWYQQRPGNTPKRLIYAASSLQSGVPSRFSGSGSGTEFTLTISSLQPEDFATYYCQQYNSYPLTFGGGTKVEIK
B14: 4A10 (antibody, V domains shown)
VH: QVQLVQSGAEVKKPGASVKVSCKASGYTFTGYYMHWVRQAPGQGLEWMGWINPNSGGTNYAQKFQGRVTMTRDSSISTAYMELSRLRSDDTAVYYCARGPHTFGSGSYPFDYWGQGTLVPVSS
VL: DIQLTQSPSSLSASVGDRVTITCRASQGIRSDLGWYQQRPGKTPKRLIYAASSLQSGVPSRFSGSGSGTEFTLTISSLQPEDFATYYCQQYNSYPLTFGGGTKVEIK
B15: 5D6 (antibody, V domains shown)
VH: QVQLVQSGAEVKKPGASVKVSCKASGYTFTSYGISWVRQAPGQGLEWMGWISAYNGNTNYAQKLQGRVTMTTDTSTNTAYMELRSLRSDDTAVYYCAVGRYLDYWGQGTLVTVSS
VL: DIQMTQSPSSLSASVGDRVTITCRASQDIRNDLGWYQQKPGKAPKRLIYAASSLQSGVPSRFSGSGSGTEFTLTISSLQPEDFATYYCLQYNSYPLTFGGGTKVEIK
B16: 3F3 (antibody, V domains shown)
VH: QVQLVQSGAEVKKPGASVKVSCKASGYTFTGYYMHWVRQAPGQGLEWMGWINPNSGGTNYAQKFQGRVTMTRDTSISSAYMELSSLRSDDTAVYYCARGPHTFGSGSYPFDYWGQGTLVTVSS
VL: DIQMTQSPSSLSASVGDRVTITCRASQGIRSDLGWYQQRPGNTPKRLIYAASSLQSGVPSRFSGSGSGTEFTLTISSLQPEDFATYYCQQYNSYPLTFGGGTKVEIK
B17: 4G2 (antibody, V domains shown)
VH: QVQLVQSGAEVKKPGASVKVSCKASGFPFTDYYMHWVRQAPGQGLEWMGWINSNSGGTNYAQKFQGRVTMTRDTSISTAYMELSRLRSDDTAVYYCARGPHSFGSGSYPFDYWGQGTLVTVSS
VL: DIQMTQSPSSLSASVGDRVTITCRASQGIRSDLGWYQQRPGKTPKRLIYAASSLQSGVPSRFSGSGSGTEFTLTISSLQPEDFATYYCQQYNSYPLTFGGGTKVEIK
B18: 4E2 (antibody, V domains shown)
VH: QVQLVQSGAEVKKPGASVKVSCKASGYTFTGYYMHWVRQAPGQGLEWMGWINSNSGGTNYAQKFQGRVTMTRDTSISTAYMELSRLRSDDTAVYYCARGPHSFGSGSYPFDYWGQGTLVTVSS
VL: DIQMTQSPSSLSASVGDRVTITCRASQGIRSDLGWYQQRPGKTPKRLIYAASSLQSGVPSRFSGSGSGTEFTLTISSLQPEDFATYYCQQYNSYPLTFGGGTKVEIK

target: S protein of SARS-CoV Urbani strain (on virus) (SARS-CoV Urbani strain, UniProt P59594 14-1255); assay: cell-based or functional assay

| Binder | Neutralizing titer 200TCID50 [µg/mL] |
| --- | --- |
| B1 | 12.5 |
| B2 | 3.12 |
| B3 | 3.12 |
| B4 | 3.12 |
| B5 | 12.5 |
| B6 | 0.781 |
| B7 | 0.195 |
| B8 | 0.195 |
| B9 | 0.195 |
| B10 | 0.781 |
| B11 | 0.195 |
| B12 | 0.781 |
| B13 | 0.781 |
| B14 | 3.12 |
| B15 | 0.195 |
| B16 | 0.781 |
| B17 | 0.781 |
| B18 | 0.781 |
